Source: EP4703388A1 (Jiangsu Hengrui Pharmaceuticals Co., Ltd., dated 2024)

Columns and labels:
[1] = biological target: T1, human TF ECD-His (hTF-his) (human, UniProt P13726 33-251); experiment: ELISA, antibody captured by anti-human IgG, biotinylated TF-his titrated
T1 construct: also called bio-hTF-his; human TF-His protein

[2] = biological target: T2, cyno TF ECD-His (cTF-his) (monkey (cyno)); experiment: as above
T2 construct: also called bio-cTF-his; monkey TF-His protein
T2 chain: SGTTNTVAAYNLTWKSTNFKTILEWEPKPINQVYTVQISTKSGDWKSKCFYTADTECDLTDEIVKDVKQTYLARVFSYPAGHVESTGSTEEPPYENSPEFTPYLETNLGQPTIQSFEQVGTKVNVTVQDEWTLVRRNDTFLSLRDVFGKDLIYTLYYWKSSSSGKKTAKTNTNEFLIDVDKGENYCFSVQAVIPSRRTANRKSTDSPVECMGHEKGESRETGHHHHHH

[3] = biological target: T1, human TF ECD-His (hTF-his); experiment: SPR Biacore T200, antibody on Protein A chip, TF-His as analyte, 1:1 model
[4] = biological target: T2, cyno TF ECD-His (cTF-his); experiment: as above
[5] = biological target: T3, human tissue factor (TF) on MDA-MB-231, NCI-H358 and HCT116 cells (human, UniProt P13726 33-295); experiment: cell-based or functional assay
[6] = biological target: T3, human tissue factor (TF) on MDA-MB-231, …; experiment: flow cytometry on H358 cells
mouse TF ECD-His = biological target: T4, mouse TF ECD-His (mouse, UniProt P20352 29-251); experiment: ELISA, TF-His coated at 4 µg/mL, antibody titrated
T4 construct: also called Mouse TF-His protein; mouse TF antigen protein
T4 sequence: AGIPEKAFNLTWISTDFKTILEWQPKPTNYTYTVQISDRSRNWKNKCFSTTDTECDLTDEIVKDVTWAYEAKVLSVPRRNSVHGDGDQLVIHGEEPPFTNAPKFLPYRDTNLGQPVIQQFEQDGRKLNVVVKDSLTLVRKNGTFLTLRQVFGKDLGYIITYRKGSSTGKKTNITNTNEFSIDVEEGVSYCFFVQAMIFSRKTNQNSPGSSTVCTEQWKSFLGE

rat TF ECD-His = biological target: T5, rat TF ECD-His (rat, UniProt P42533 29-252); experiment: ELISA, TF-His coated at 4 µg/mL, antibody titrated
T5 construct: also called rat TF-His protein; rat TF antigen protein
T5 sequence: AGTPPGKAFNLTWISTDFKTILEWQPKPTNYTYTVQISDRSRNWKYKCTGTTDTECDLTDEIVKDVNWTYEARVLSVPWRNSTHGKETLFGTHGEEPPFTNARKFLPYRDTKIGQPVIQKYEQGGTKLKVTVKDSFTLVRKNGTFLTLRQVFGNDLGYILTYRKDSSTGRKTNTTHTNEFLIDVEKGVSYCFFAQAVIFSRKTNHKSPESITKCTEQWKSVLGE

[7] = biological target: T3, human tissue factor (TF) on MDA-MB-231, …; experiment: cell-based or functional assay; remark: listed apart in the source
[8] = biological target: T6, HuRatTF, human-rat hybrid TF antigen (human-rat hybrid); experiment: ELISA, HuRatTF coated, antibody titrated
T6 construct: also called HuRatTF protein; human-rat hybrid TF protein
T6 chain: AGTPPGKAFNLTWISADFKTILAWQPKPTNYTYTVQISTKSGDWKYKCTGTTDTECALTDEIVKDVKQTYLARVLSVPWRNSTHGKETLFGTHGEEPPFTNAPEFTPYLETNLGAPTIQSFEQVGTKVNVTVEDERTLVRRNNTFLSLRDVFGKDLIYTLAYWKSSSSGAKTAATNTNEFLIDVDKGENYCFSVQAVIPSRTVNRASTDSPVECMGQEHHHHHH

[9] = biological target: T3, human tissue factor (TF) on MDA-MB-231, …; experiment: flow cytometry on HCT116 cells
[10] = biological target: T3, human tissue factor (TF) on MDA-MB-231, …; experiment: flow cytometry on MDA-MB-231 cells

B1: hu67Y116 (antibody, human IgG1, kappa, V domains shown)
VH: EVQLQESGPGLVKPSQTLSLTCTVSGFSLTNYGVNWIRQSPGKGLEWIGVIWSRGNTDYNAAFKSRVTISKDTSKNQVSLKLSSVTAADTAVYYCARKDAIVATDALDYWGQGTTVTVSS
VL: DIQMTQSPSSLSASVGDRVTITCKASQDVQTAVAWYQQKPGKAPKLLIYSTHYRYTGVPSRFSGSGSGTDFTFTISSLQPEDIATYYCLQSYTLPFSFGGGTKVEIKR
EC50 [1]: 0.103 mg/L
Emax [1]: 0.89
EC50 [2]: 0.0691 mg/L
Emax [2]: 1.17
Kd [3]: 39.4 nM
koff [3]: 0.00263 s⁻¹
kon [3]: 66700 M⁻¹ s⁻¹
Kd [4]: 27.1 nM
koff [4]: 0.000947 s⁻¹
kon [4]: 35000 M⁻¹ s⁻¹
EC50 (nM), IL8 assay (IL-8 of MDA-MB-231 cells after antibody and FVIIa) [5]: 1.57 nM
EC50 [6]: 5.42 nM
binding result (mouse TF ECD-His): no binding
binding result (rat TF ECD-His): no binding
Inhibition rate (%), Factor-VII-Human Chromogenic-Activity blood coagulation pathway assay (FVIIa, MDA-MB-231 cells, FX; antibody 20 µg/mL) [7]: 4%
EC50 [8]: 53.4 nM
Maximum (OD450 nm) [8]: 0.292 OD450 nm
EC50 [9]: 1.66 nM
EC50 [10]: 4.91 nM
